{
  "source": "the supplement of paper PMC9112550",
  "about": "“Optimization of the antimicrobial peptide Bac7 by deep mutational scanning” (BMC Biology, 2022);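 further: peptides expressed intracellularly from a pBAD plasmid library in pooled LB shake-flask culture, induced with 0.3% L-arabinose, DNA abundance read by NGS, three biological replicates, DESeq2 with apeglm shrinkage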",
  "data": [
    {"tested_on": "Escherichia coli TOP10", "experiment": "shrunken log2 fold change of peptide-encoding DNA abundance (4.5 h post-induction vs induction); higher = less antimicrobial activity (less host growth inhibition)", "conditions": "time post-induction: 4.5 h; library: site-saturation at positions 5, 18, 19, 20", "values": [
      {"sequence": "RRIRRRPPRLPRPRPRPRNCPRP", "shrunken log2 fold change": -0.0356},
      {"sequence": "RRIRMRPPRLPRPRPRPRNRPRP", "shrunken log2 fold change": 0.687},
      {"sequence": "RRIRPRPPRLPRPRPRPRPKPRP", "shrunken log2 fold change": 3.22},
      {"sequence": "RRIRSRPPRLPRPRPRPNREPRP", "shrunken log2 fold change": -0.138},
      {"sequence": "RRIRCRPPRLPRPRPRPESQPRP", "shrunken log2 fold change": -0.0239},
      {"sequence": "RRIRCRPPRLPRPRPRPKMGPRP", "shrunken log2 fold change": 0.0549},
      {"sequence": "RRIRFRPPRLPRPRPRPFEGPRP", "shrunken log2 fold change": 0.0456},
      {"sequence": "RRIRIRPPRLPRPRPRPPKYPRP", "shrunken log2 fold change": -0.886},
      {"sequence": "RRIRVRPPRLPRPRPRPPYDPRP", "shrunken log2 fold change": -0.0602},
      {"sequence": "RRIRTRPPRLPRPRPRPFSMPRP", "shrunken log2 fold change": -0.0868},
      {"sequence": "RRIRKRPPRLPRPRPRPMQVPRP", "shrunken log2 fold change": 0.175},
      {"sequence": "RRIRARPPRLPRPRPRPERCPRP", "shrunken log2 fold change": 1.09},
      {"sequence": "RRIRFRPPRLPRPRPRPRGSPRP", "shrunken log2 fold change": 0.432},
      {"sequence": "RRIRLRPPRLPRPRPRPCDDPRP", "shrunken log2 fold change": -0.189},
      {"sequence": "RRIRSRPPRLPRPRPRPRADPRP", "shrunken log2 fold change": 0.387},
      {"sequence": "RRIRDRPPRLPRPRPRPMVFPRP", "shrunken log2 fold change": -0.0423},
      {"sequence": "RRIRGRPPRLPRPRPRPQACPRP", "shrunken log2 fold change": 0.27},
      {"sequence": "RRIRSRPPRLPRPRPRPNNAPRP", "shrunken log2 fold change": -0.38},
      {"sequence": "RRIRCRPPRLPRPRPRPNDVPRP", "shrunken log2 fold change": -0.215},
      {"sequence": "RRIRWRPPRLPRPRPRPVKAPRP", "shrunken log2 fold change": 0.284},
      {"sequence": "RRIRERPPRLPRPRPRPEKTPRP", "shrunken log2 fold change": -0.031},
      {"sequence": "RRIRTRPPRLPRPRPRPYPPPRP", "shrunken log2 fold change": -0.203},
      {"sequence": "RRIRTRPPRLPRPRPRPHLVPRP", "shrunken log2 fold change": 0.0214},
      {"sequence": "RRIRVRPPRLPRPRPRPAGKPRP", "shrunken log2 fold change": -0.308},
      {"sequence": "RRIRMRPPRLPRPRPRPMVAPRP", "shrunken log2 fold change": 0.12},
      {"sequence": "RRIRERPPRLPRPRPRPQYVPRP", "shrunken log2 fold change": -0.215},
      {"sequence": "RRIRFRPPRLPRPRPRPMHNPRP", "shrunken log2 fold change": -0.52},
      {"sequence": "RRIRVRPPRLPRPRPRPMTWPRP", "shrunken log2 fold change": -0.124},
      {"sequence": "RRIRERPPRLPRPRPRPENDPRP", "shrunken log2 fold change": -0.0725},
      {"sequence": "RRIRMRPPRLPRPRPRPFSVPRP", "shrunken log2 fold change": -0.0472},
      {"sequence": "RRIRGRPPRLPRPRPRPYWEPRP", "shrunken log2 fold change": -0.0842},
      {"sequence": "RRIRSRPPRLPRPRPRPGGEPRP", "shrunken log2 fold change": 0.585},
      {"sequence": "RRIRYRPPRLPRPRPRPWNPPRP", "shrunken log2 fold change": -0.00498},
      {"sequence": "RRIRERPPRLPRPRPRPGNFPRP", "shrunken log2 fold change": -0.0564},
      {"sequence": "RRIRFRPPRLPRPRPRPMNYPRP", "shrunken log2 fold change": -0.582},
      {"sequence": "RRIRPRPPRLPRPRPRPGKAPRP", "shrunken log2 fold change": 0.37},
      {"sequence": "RRIRGRPPRLPRPRPRPQGDPRP", "shrunken log2 fold change": 0.824},
      {"sequence": "RRIRRRPPRLPRPRPRPGHVPRP", "shrunken log2 fold change": -0.00681},
      {"sequence": "RRIRMRPPRLPRPRPRPLRQPRP", "shrunken log2 fold change": -0.214},
      {"sequence": "RRIRCRPPRLPRPRPRPTHDPRP", "shrunken log2 fold change": 0.302},
      {"sequence": "RRIRTRPPRLPRPRPRPTKHPRP", "shrunken log2 fold change": -0.258},
      {"sequence": "RRIRERPPRLPRPRPRPCKNPRP", "shrunken log2 fold change": -0.121},
      {"sequence": "RRIRQRPPRLPRPRPRPQEKPRP", "shrunken log2 fold change": 0.0313},
      {"sequence": "RRIRKRPPRLPRPRPRPYPSPRP", "shrunken log2 fold change": 0.0794},
      {"sequence": "RRIRFRPPRLPRPRPRPKFPPRP", "shrunken log2 fold change": -0.0265},
      {"sequence": "RRIRSRPPRLPRPRPRPMMVPRP", "shrunken log2 fold change": -0.203},
      {"sequence": "RRIRHRPPRLPRPRPRPQLRPRP", "shrunken log2 fold change": -0.343},
      {"sequence": "RRIRCRPPRLPRPRPRPNCKPRP", "shrunken log2 fold change": -0.138},
      {"sequence": "RRIRMRPPRLPRPRPRPHFRPRP", "shrunken log2 fold change": 0.0286},
      {"sequence": "RRIRKRPPRLPRPRPRPMEKPRP", "shrunken log2 fold change": -0.0153},
      {"sequence": "RRIRCRPPRLPRPRPRPEWEPRP", "shrunken log2 fold change": -0.00663},
      {"sequence": "RRIRCRPPRLPRPRPRPKKMPRP", "shrunken log2 fold change": 0.169},
      {"sequence": "RRIRNRPPRLPRPRPRPSEAPRP", "shrunken log2 fold change": 0.00843},
      {"sequence": "RRIRHRPPRLPRPRPRPVTTPRP", "shrunken log2 fold change": 0.0639},
      {"sequence": "RRIRGRPPRLPRPRPRPRMLPRP", "shrunken log2 fold change": 0.356},
      {"sequence": "RRIRVRPPRLPRPRPRPTPPPRP", "shrunken log2 fold change": 0.406},
      {"sequence": "RRIRMRPPRLPRPRPRPNVKPRP", "shrunken log2 fold change": -0.0702},
      {"sequence": "RRIRKRPPRLPRPRPRPFYPPRP", "shrunken log2 fold change": -0.0703},
      {"sequence": "RRIRGRPPRLPRPRPRPCFPPRP", "shrunken log2 fold change": 0.309},
      {"sequence": "RRIRARPPRLPRPRPRPCDIPRP", "shrunken log2 fold change": -0.2},
      {"sequence": "RRIRPRPPRLPRPRPRPSKNPRP", "shrunken log2 fold change": -0.333},
      {"sequence": "RRIRGRPPRLPRPRPRPYRQPRP", "shrunken log2 fold change": -0.401},
      {"sequence": "RRIRCRPPRLPRPRPRPSHGPRP", "shrunken log2 fold change": -0.33},
      {"sequence": "RRIRTRPPRLPRPRPRPLVAPRP", "shrunken log2 fold change": 0.106},
      {"sequence": "RRIRDRPPRLPRPRPRPMGAPRP", "shrunken log2 fold change": 1.43},
      {"sequence": "RRIRRRPPRLPRPRPRPHHKPRP", "shrunken log2 fold change": -0.0355},
      {"sequence": "RRIRLRPPRLPRPRPRPIKCPRP", "shrunken log2 fold change": -0.152},
      {"sequence": "RRIRDRPPRLPRPRPRPSPCPRP", "shrunken log2 fold change": -0.0819},
      {"sequence": "RRIRRRPPRLPRPRPRPHPYPRP", "shrunken log2 fold change": -0.069},
      {"sequence": "RRIRMRPPRLPRPRPRPQQWPRP", "shrunken log2 fold change": 0.153},
      {"sequence": "RRIRMRPPRLPRPRPRPHELPRP", "shrunken log2 fold change": 0.627},
      {"sequence": "RRIRWRPPRLPRPRPRPWPGPRP", "shrunken log2 fold change": 0.217},
      {"sequence": "RRIRWRPPRLPRPRPRPCLWPRP", "shrunken log2 fold change": 0.0333},
      {"sequence": "RRIRERPPRLPRPRPRPVDHPRP", "shrunken log2 fold change": -0.195},
      {"sequence": "RRIRGRPPRLPRPRPRPYFQPRP", "shrunken log2 fold change": -0.161}
    ]}
  ]
}
